Measured values published in publication PMC13241479, “GPLD1 is a scavenger carrier mediating lysosomal degradation of extracellular aberrant proteins” (Life Science Alliance, 2026).

Molecular target: T1, GPLD1-mCherry-sfGFP-His (glycosylphosphatidylinositol-specific phospholipase D1) (human, UniProt P80108 24-840)
T1 construct: glycosylphosphatidylinositol-specific phospholipase D1, human, full-length cDNA amplified from HepG2 cells; fusion of about 160 kD; also called GPLD1-RG; GPLD1-RFP-GFP; not shown: mCherry, C-terminal, kept; sfGFP, C-terminal, kept; His, C-terminal, kept
T1 sequence (looked up): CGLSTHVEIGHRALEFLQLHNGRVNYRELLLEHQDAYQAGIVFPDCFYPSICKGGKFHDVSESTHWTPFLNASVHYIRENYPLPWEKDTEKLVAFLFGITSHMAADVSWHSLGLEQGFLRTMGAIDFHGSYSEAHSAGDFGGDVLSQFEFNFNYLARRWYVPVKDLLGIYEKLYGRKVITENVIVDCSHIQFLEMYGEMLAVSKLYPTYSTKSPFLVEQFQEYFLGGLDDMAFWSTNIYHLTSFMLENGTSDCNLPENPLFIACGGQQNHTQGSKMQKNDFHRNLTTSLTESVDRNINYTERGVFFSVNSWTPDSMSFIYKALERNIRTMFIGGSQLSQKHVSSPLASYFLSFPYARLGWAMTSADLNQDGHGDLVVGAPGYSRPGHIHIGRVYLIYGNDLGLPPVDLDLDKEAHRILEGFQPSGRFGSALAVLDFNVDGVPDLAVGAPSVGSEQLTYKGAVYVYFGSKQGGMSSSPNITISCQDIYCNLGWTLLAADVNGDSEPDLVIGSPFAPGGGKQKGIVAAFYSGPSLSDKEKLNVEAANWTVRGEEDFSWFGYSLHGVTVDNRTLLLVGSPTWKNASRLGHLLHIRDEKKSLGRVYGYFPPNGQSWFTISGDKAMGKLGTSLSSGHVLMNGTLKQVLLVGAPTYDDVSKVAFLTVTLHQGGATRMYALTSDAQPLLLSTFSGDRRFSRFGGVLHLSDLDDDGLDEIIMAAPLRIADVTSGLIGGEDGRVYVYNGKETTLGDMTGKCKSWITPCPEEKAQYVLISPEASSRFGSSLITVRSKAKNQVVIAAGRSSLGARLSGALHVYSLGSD
Test: co-IP; purified GPLD1-RG (40 nM) or clusterin-RG mixed with His-ALFA-SAA1 (500 nM) or ALFA-tagged Ab42 in PBS, 37°C with shaking for 2 h; aggregates removed at 20,000g; ALFA nanobody beads 2 h at 4°C; washed four times with PBS; immunoblot
Details: both partners purified

binding result	Binder
binds	His-ALFA-SAA1-N terminus (human SAA1 19-94 aa) (domain or fragment, UniProt P0DJI8 19-94, looked up, serum amyloid A1, human, residues 19-94; the N-terminal 76 aa residues, the core amyloidogenic fragment; Prepared in 8 M urea-denatured form for all experiments; aggregates on dilution into PBS; also called His-ALFA-tagged SAA1-N; source: E. coli BL21(DE3) pLysS, purified from inclusion bodies under denaturing conditions (8 M urea, Co-NTA); not shown: His, N-terminal, kept; ALFA, N-terminal, kept) RSFFSFLGEAFDGARDMWRAYSDMREANYIGSDKYFHARGNYDAAKRGPGGAWAAEVITDARENIQRFFGHGAEDS
binds	His-ALFA-SAA1-Full length (human SAA1 19-122 aa) (natural protein, UniProt P0DJI8 19-122, looked up, The purification of the native full-length form is not described in the methods (only SAA1-N and Ab42 from inclusion bodies); source: E. coli BL21(DE3) pLysS, recombinant, used native; not shown: His, N-terminal, kept; ALFA, N-terminal, kept) RSFFSFLGEAFDGARDMWRAYSDMREANYIGSDKYFHARGNYDAAKRGPGGAWAAEVITDARENIQRFFGHGAEDSLADQAANEWGRSGKDPNHFRPAGLPEKY
